Some targets named below: HLA-B*44:02; HLA-B*44:03; HLA-B*18:01; HLA-B*07:02; HLA-B*35:01; HLA-A*02:05; HLA-B*52:01; HLA-B*58:01; HLA-B*27:05.
What all share (assay): IEDB peptide-MHC binding, purified MHC/competitive/radioactivity; ≥ and ≤ were set here for values at or beyond the usual limits of such assays
Conditions in all cases: source organism: Hepatitis delta virus

The source of these data is the Immune Epitope Database (IEDB).

As for DDNPWLGNI, the figures for the IC50 with HLA-B*44:02, with HLA-B*44:03 and with HLA-B*18:01 were 35.1 µM, 9.19 µM and at least 50 µM, respectively.
Regarding DRGFPWDILF, the IC50 was at least 50 µM in the test with HLA-B*07:02, at least 50 µM with HLA-B*35:01, at least 50 µM with HLA-A*02:05 and 4.68 µM in the test with HLA-B*52:01.
Take EENLWLGNI: the IC50 stood at 0.468 µM with HLA-B*44:02, 0.217 µM in the test with HLA-B*44:03 and 1.99 µM with HLA-B*18:01.
As to FPWDILFPA, the values for the IC50 in the test with HLA-B*07:02, in the test with HLA-B*35:01 and in the test with HLA-A*02:05 were 0.096 µM, 0.0057 µM and 9.37 µM, respectively.
The corresponding values for FPWDILFPS are 13.5 µM, 0.027 µM and 11.7 µM.
For FPWDLLFPA, in that order: 0.467 µM, 0.018 µM and 4.16 µM.
FPWDMLFPA: the figures for the IC50 with HLA-B*07:02, in the test with HLA-B*35:01 and with HLA-A*02:05 were 0.43 µM, 0.0017 µM and 5.74 µM, respectively.
For NQGIPWDILF, the IC50 is at least 50 µM with HLA-B*07:02, at least 50 µM with HLA-B*35:01, 7.17 µM with HLA-A*02:05 and 1.47 µM in the test with HLA-B*52:01.
In the case of QGFPWDILF, the IC50 with HLA-B*07:02 came to 44.3 µM; with HLA-B*35:01, 0.118 µM; with HLA-A*02:05 it was 9.63 µM; with HLA-B*52:01, 0.018 µM.
For the sequence QGFPWDLLF, the IC50 with HLA-B*07:02 is at least 50 µM; with HLA-B*35:01, 0.213 µM; with HLA-A*02:05, 3.41 µM; with HLA-B*52:01, 0.135 µM.
With RGDREFPW, the IC50 with HLA-B*58:01 was 0.195 µM.
For RGSQGFPW, the IC50 with HLA-B*58:01 was determined as 0.014 µM.
RRKALENKR: the IC50 with HLA-B*27:05 is 0.109 µM.
The same measure, in the same setting: under RRKALENKS stands 13.6 µM.
On to SQGFPWDILF, for which the IC50 with HLA-B*07:02 is at least 50 µM; with HLA-B*35:01, at least 50 µM; in the test with HLA-A*02:05, 3.12 µM; in the test with HLA-B*52:01, 3.66 µM.
Take TGRQGFPW: in the test with HLA-B*58:01, the IC50 was 1.55 µM.

As a reminder, the IC50 is the concentration at which inhibition is half-maximal.
